Laboratory results from the DeepSol protein solubility set.

Experiment: soluble on expression in E. coli; label from the status in PepcDB or PDB records
In the case of “MEELQYFPYERLRPNQREFIEIVKEAVKRGENLIVEAPTGFGKTISVLAGVLPYAISLGYKVVYLARTHKQMDRVIEELKKIRERNEVSGIEFRSRRDLCLHSYIQTFVQDAYTSMIVCKTLRKLGKCPFFENIKEKRDRVEEIVRFFLNSPPFPHEVLEYSELLELCPYEITKKIGEKANVIVASYLYMISPPIRQAFLENLGVDYSDLIVIFDEAHNLPDQAISALSDRLSIRSIERAIKEAEEYGEKDIENFLSILLRGLEILYKEKLENYESEEVPIRPEEVFLHVASVLGWSGREIGMMLEDMIEVGDAIREDRIERNLPPRSYVGRVGEFLWNWLALREREDYLHLFTKERGLALELVALDPSVALEFLEEVHSAIFMSGTLSPLEAFRDIIGVKAELKKFPRMIKRENAIVLVARDVSTRGIERSPSLYRRISEYIFEAVRNTPKNVGVFTASYEVLEGILSTNVHIKIEEEIGKKVFIEKRDAPSRENDEMIRAFKEESKGKGAVLFGVMGGRNSEGQDYSGDEMNGVVLVGIPYARPTPRVQAQIRYFEKKFPGKGRYYGYVLPAHRKLTQAAGRVHRSEEEKGSIVILDYRVLWKSVKKDLPDWMVETMIPVTLPHYENKTLEHHHHHH”, the “soluble on expression in E. coli” value is reported as “not soluble”.
In the case of “IKDFSYGARFNLSDQKDKLVDYGVEYNGFVAGVNQKVQGYSLGSIFGYRTDGYFTSEEEVKNSAAFNKAITGVGDIKYIDKDGDGKISAPNDLEYLGTTTPRYTFGLNLTAAWKGFDLGVLLQGVGKRNFYLSSEVMNPYYATWNNFSYKMHNDYWTPENPNAAFPRYYAGANHNYQISDHWLQNAAYVRLKNLQLGYTISPKLTKSWGIQRLRVYFSGDNLCEYSKLNDNFDPELSDINGYVYPIMRNFSFGINVTL”, the “soluble on expression in E. coli” value is reported as “not soluble”.
With “MNIYAFDFDEIESQEDFYRDFSQTFGLAKDKVRDLDSLWDVLMNDVLPLPLEIEFVHLGEKTRRRFGALILLFDEAEEELEGHLRFNVRH” the “soluble on expression in E. coli” value was “not soluble”.
With “FTEYGAEYKIEVGILKDVVTLTLDTSGEGLHKRGYRENSGGAPIKETLAAAMVLLSDWNPDIELADPMCGSGTIAIEAALIGKNIAPGLKRRFVSEEWDIIPKDLWSDLRKHARNSINDKEFNILCSDIDGWVIKTARANAKKAGVDKYISFQKLPMQDFSSKRKGGFIITNPPYGERLGEVKEVEKLYKDMGRVFKALDKWSYFIITAHEKFEDCFGRKSNKNRKLYNGKLKCYYYQYFGDRK” the “soluble on expression in E. coli” value was “not soluble”.
With “MSLSGIYERLQSLESLDLKSLDKNRTMLLIVDINKGFAKEGALYSDRIEKLISPISNLANYALNSGIRVKAFTDYHTEDSIELKAYPKHCMKDTDEWELVDELNLEGIEVIKKNSTNGFLEENFILNKEEIDNVIIVGDCTDICIYQLAISLRAEFNRVNKDGEIYVPKKLVDTFDMPMHKANFMNYVFLNSMLDNGVKVIEDIILDEGHHHHHH” the “soluble on expression in E. coli” value was “soluble”.
With “MTARVAGQAVGGQILVGEPVHDAVSDCADIRFGSYRLFSLDAAPGPDLD” the “soluble on expression in E. coli” value was “not soluble”.
In the case of “MSLNPKILEKWMAEGQVTLPQVLVKNYATIGLNEVELVLLLQIQSFAAEAEFFPSMEMLTNRTTLPLEETIKTMDSLLKKGVIAIEQSQDNSRMISEQYNLAPLWGKLVALYENKEADSKHEKELEKQTSLYTLFEAEFGRPLSPMEAEMLSAWVEQDRTSPDLIKEALKEAVISQKLNFRYIDRILLNWSKQGVKTIEDAKRVAEEFHQNGRTSQAINQTEVKKSAGSIPLYDWLEKRKGEGHHHHHH”, the “soluble on expression in E. coli” value is reported as “soluble”.
For “MINTMTLDNGVRIITEKMSTVRSVSIGIWVGTGSRYESAEENGISHFLEHMFFKGTNTRSAQEIAEFFDSIGGQVNAFTSKEYTCYYAKVLDDHAGQAIDTLSDMFFHSTFQKEELEKERKVVFEEIKMVDDTPDDIVHDLLSSATYGKHSLGYPILGTVETLNSFNEGMLRHYMDRFYTGDYVVISVAGNVHDELIDKIKETFSQVKPTTYNYQGEKPMFLPNRIVRKKETEQAHLCLGYPGLPIGDKDVYALVLLNNVLGGSMSSRLFQDIREKRGLCYSVFSYHSSFRDSGMLTIYAGTGHDQLDDLVYSIQETTSALAEKGLTEKELENGKEQLKGSLMLSLESTNSRMSRNGKNELLLKKHRSLDEMIEQINAVQKQDVSRLAKILLSASPSISLINANGELPKALIHLEHHHHHH”, the “soluble on expression in E. coli” value was “soluble”.
In the case of “MDLSSLEIFRAVAHEASVTRAAQRLQRAQSNVTTRIRQLEEDLGVELFLRDGKRMSLTERGSEFLAYAEQLLALADEARQSMHPAEPGGRLRLGSMESTAASRLPALLASYHKACPRVALEVSTGTSHALFDGVRARRLDCALVAAGPGWAGELDGSGLRGEPLFREELLMILPAEHPPVHDVAEVRLRTLAGFARGCTYRQLAEDSLGTPLTVQEVGSYHAILACVAAGACVGVLPRSVLQLLGTPPLRSLPLAEVDTWLVWREGYATAAFERWRGVLGQAGD”, the “soluble on expression in E. coli” value is reported as “not soluble”.
